This passage reports reduction of binding in the presence of ATP results from publication PMC2898433.

The experiment has as its target GST-Kar2p (S. cerevisiae) (UniProt P16474). Briefly: pull-down.

B1: His-Sil1p (natural protein)
chain: TILHSSIHSVPSGGEIISAEDLKELEISGNSICVDNRCYPKIFEPRHDWQPILPGQELPGGLDIRINMDTGLKEAKLNDEKNVGDNGSHELIVSSEDMKASPGDYEFSSDFKEMRNIIDSNPTLSSQDIARLEDSFDRIMEFAHDYKHGYKIITHEFALLANLSLNENLPLTLRELSTRVITSCLRNNPPVVEFINESFPNFKSKIMAALSNLNDSNHRSSNILIKRYLSILNELPVTSEDLPIYSTVVLQNVYERNNKDKQLQIKVLELISKILKADMYENDDTNLILFKRNAENWSSNLQEWANEFQEMVQNKSIDELHTRTFFDTLYNLKKIFKSDITINKGFLNWLAQQCKARQSNLDNGLQERDTEQDSFDKKLIDSRHLIFG
Regarding B1, the reduction of binding in the presence of ATP is 50%.
